{"source": "patent US20110014656A1", "about": "(ZymoGenetics, published 2011)", "binders": {"B1": {"name": "human IL-17F (ligand)", "chain": "RKIPKVGHTFFQKPESCPPVPGGSMKLDIGIINENQRVSMSRNIESRSTSPWNYTVTWDPNRYPSEVVQAQCRNLGCINAQGKEDISMNSVPIQQETLVVRRKHQGCSVSFQLEKVLVTVGCTCVTPVIHHVQ", "notes": "also called hIL-17F; hIL17F"}}, "key": {"[1]": {"biological_target": "T1, human IL-17RC, x1 splice variant, on transfected cells (human, UniProt Q8NAC3 21-791)", "T1 sequence": "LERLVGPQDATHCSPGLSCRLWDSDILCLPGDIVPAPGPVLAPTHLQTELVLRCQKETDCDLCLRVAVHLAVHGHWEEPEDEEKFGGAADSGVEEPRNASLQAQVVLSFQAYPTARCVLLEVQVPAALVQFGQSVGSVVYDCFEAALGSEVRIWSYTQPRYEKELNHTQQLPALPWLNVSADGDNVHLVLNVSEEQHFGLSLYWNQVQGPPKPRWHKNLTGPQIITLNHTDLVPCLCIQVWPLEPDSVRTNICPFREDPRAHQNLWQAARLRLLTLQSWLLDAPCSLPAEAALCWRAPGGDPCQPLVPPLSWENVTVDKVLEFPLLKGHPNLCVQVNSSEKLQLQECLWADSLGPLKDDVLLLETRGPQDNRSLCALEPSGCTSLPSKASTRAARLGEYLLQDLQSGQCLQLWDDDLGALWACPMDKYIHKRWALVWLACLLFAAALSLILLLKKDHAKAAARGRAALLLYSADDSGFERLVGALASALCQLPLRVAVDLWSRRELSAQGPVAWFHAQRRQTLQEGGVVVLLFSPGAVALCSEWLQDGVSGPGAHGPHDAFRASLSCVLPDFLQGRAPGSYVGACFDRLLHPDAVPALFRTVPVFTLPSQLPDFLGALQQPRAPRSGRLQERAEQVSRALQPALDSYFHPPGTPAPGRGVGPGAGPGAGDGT", "test": "cell-based or functional assay"}, "[2]": {"biological_target": "T2, human IL-17 receptor (IL-17RA) on transfected cells (human, UniProt Q96F46 33-320)", "T2 sequence": "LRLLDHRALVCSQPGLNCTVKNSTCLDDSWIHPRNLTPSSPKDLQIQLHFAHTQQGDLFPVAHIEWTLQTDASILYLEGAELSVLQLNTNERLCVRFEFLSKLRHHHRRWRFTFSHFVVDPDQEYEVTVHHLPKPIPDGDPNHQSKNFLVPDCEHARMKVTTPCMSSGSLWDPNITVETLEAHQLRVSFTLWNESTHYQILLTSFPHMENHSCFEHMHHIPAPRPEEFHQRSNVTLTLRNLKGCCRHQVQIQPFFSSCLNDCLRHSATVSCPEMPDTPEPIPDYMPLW", "test": "cell-based or functional assay"}, "[3]": {"biological_target": "T1, human IL-17RC, x1 splice variant, on …", "test": "saturation binding, iodinated cytokine on transfected BHK cells"}, "[4]": {"biological_target": "T1, human IL-17RC, x1 splice variant, on …", "test": "competition, 100x molar cold ligand vs 125I-IL-17A on BHK hIL-17RC cells", "description": "(§1) Cold competitors were added in 100 fold molar excess. […] Wells were incubated on ice for 1-hour followed by two washes with PBS (Invitrogen 20012-027) and one wash with a high salt solution (1.5M NaCL, 50 mM HEPES pH 7.4). Wells were extracted with 500 ul of 0.8M NaOH for 30 min. at room temperature and counts per minute were measured in a gamma counter (Packard Cobra II A5005)."}, "[5]": {"biological_target": "T1, human IL-17RC, x1 splice variant, on …", "test": "competition, 100x molar cold ligand vs 125I-IL-17F on BHK hIL-17RC cells", "description": "as §1"}, "[6]": {"biological_target": "T1, human IL-17RC, x1 splice variant, on …", "test": "saturation binding, 125I-cytokine on BHK cells; high affinity site of a two-site fit", "description": "as §1\nTransfected BHK cells were plated into 24-well dishes as in one. […] Separately, 100 fold molar excess of cold ligand was added at each dilution point. Cells were washed, extracted and counted as in one. Specific counts per minute were plotted against concentration of radiolabeled ligand added by subtracting the 100 fold excess counts from the uncompeted counts at each dilution point. These normalized data were plotted to generate saturation binding curves for each combination of radiolabeled ligand and transfected BHK cells."}}, "note": "“And” between values parts separate entries of the source, which are not always exact repeats. Identical values can stand only once."}
{"binder": "B1", "values": [{"measurement": "EC50, luciferase in nih3t3/kz142.8/hcytor14X1 cells", "setting": "[1]", "result": 0.61, "unit": "ng/mL"}, {"measurement": "fold more potent EC50 in the recombinant line than in the parental line", "setting": "[1]", "result": 17, "unit": "fold"}, {"measurement": "EC50, luciferase in nih3t3/kz142.8/IL-17R cells", "setting": "[2]", "result": 12.4, "unit": "ng/mL"}, {"measurement": "Kd", "setting": "[3]", "result": 1, "unit": "nM"}, {"measurement": "fold reduction of 125I-IL-17A binding", "setting": "[4]", "result": "~7", "unit": "fold"}, {"measurement": "fold reduction of 125I-IL-17F binding", "setting": "[5]", "result": "~5", "unit": "fold"}, {"measurement": "Kd", "setting": "[6]", "result": "0.05 nM and 0.06 nM and 0.08 nM"}]}
